From patent publication US20190225686A1 (Daiichi Sankyo, published 2019)
Positions count from the first letter of the chain named.

Legend:
human GPR20 [1] = target: T1, human GPR20 (human, UniProt Q99678 1-358); test: flow cytometry on 293T cells transfected with pcDNA3.1-hGPR20
T1 construct: 358 amino acids, NCBI NP_005284; also called hGPR20; human GPR20 protein (NP_005284)
Protocol: The cells were cultured overnight under conditions of 37° C. and 5% CO₂, and thereafter, a cell suspension was prepared. To the obtained cell suspension, each humanized anti-GPR20 antibody was added, and the obtained mixture was left standing at 4° C. for 1 hour. […] The cells were left standing at 4° C. for 1 hour. The cells were washed twice with PBS supplemented with 5% FBS, and then re-suspended in PBS supplemented with 5% FBS, followed by detection using a flow cytometer (BD FACSCant II; BD Biosciences). The data was analyzed using Flowjo (Tree Star, Inc.). […] In the histograms of FIG. 24, the abscissa depicts the fluorescence intensity of PE indicating the amount of the antibody bound, and the ordinate depicts a cell count.

[2] = target: GPR20-EGFP protein comprising human GPR20 linked at its C-terminus to EGFP (human, UniProt Q99678 1-358); test: cell-based or functional assay
human GPR20 [3] = target: T1, human GPR20; test: cell-based or functional assay
mouse GPR20 = target: T2, mouse GPR20 (mouse, UniProt Q8BYC4 1-358); test: Cell-ELISA on 293a cells transiently expressing mouse GPR20
T2 construct: whole, on cells; also called mGPR20; mouse GPR20 (NP_775541)
Protocol: (§1) The cells were left standing at 4° C. for 1 hour. […] The cells were left standing at 4° C. for 1 hour. The cells in the wells were washed three times with PBS (+) supplemented with 5% FBS, and thereafter, OPD chromogenic solution (which had been prepared by dissolving o-phenylenediamine dihydrochloride (Wako Pure Chemical Industries, Ltd.) and H₂O₂ in an OPD solution (0.05 M trisodium citrate, 0.1 M disodium hydrogen phosphate 12-water; pH 4.5), so that the substances became 0.4 mg/ml and 0.6% (v/v), respectively) was added in an amount of 100 μL/well to the wells. A coloring reaction was carried out with occasional stirring. Thereafter, 1 M HCl was added to the plate (100 μL/well) to terminate the coloring reaction, followed by measurement of the absorbance at 490 nm using a plate reader (ENVISION: PerkinElmer, Inc.).

[4] = target: T3, human/mouse chimeric GPR20 in which EC2 of human GPR20 was substituted with EC2 of mouse GPR20 (human, UniProt Q99678 1-358); test: Cell-ELISA on 293a cells transiently expressing hGPR20_mECD2
T3 construct: also called hGPR20_mECD2
Protocol: as §1

T2 sequence (Q8BYC4 whole entry): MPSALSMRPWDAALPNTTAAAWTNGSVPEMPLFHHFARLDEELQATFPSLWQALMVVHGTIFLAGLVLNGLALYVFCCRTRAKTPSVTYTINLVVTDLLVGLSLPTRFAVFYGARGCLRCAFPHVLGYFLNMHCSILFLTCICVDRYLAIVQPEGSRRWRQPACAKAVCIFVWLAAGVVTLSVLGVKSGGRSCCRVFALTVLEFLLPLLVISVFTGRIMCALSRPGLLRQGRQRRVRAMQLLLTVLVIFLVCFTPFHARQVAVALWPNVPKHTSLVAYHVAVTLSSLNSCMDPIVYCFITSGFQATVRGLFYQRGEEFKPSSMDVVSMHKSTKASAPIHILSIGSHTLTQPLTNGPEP
T3 sequence (Q99678 other isoform, or with tags, fused parts or gaps mutant): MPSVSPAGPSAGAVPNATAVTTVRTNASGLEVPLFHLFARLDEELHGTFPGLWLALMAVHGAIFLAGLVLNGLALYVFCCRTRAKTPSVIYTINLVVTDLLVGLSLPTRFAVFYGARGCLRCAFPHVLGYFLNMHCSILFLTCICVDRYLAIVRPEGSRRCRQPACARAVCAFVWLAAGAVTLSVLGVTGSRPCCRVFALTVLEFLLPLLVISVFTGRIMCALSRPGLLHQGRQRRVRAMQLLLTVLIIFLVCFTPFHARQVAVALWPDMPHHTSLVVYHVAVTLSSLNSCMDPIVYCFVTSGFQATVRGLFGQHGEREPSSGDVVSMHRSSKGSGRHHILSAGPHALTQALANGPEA
GPR20-EGFP protein comprising human GPR20 linked at its C-terminus to EGFP, sequence (Q99678 whole entry): as the sequence (Q99678 other isoform, or with tags, fused parts or gaps mutant) above, with F113Y counted along it
T1 sequence (Q99678 whole entry): as the sequence (Q99678 other isoform, or with tags, fused parts or gaps mutant) above, with F113Y counted along it

B1: antibody-drug conjugate (1) 046Ch-ADC2 (antibody, human IgG1)
heavy: not shown
light: DTVLTQSPALAVSLGQRVTISCRASKSVSTYIHWYQQRSGQQPKLLIYSASNLESGVPSRFSGSGSGTDFTLTIDPVEPDDIANYYCQQINELPYTFGAGTKLELKRAVAAPSVFIFPPSDEQLKSGTASVVCLLNNFYPREAKVQWKVDNALQSGNSQESVTEQDSKDSTYSLSSTLTLSKADYEKHKVYACEVTHQGLSSPVTKSFNRGEC
modifications: ADC2 exatecan drug linker on the interchain-disulfide cysteine, thioether bond; position not given; ADC2 exatecan drug linker (maleimide-PEG2-GGFG-NH-CH2CH2CH2-C(=O)-(NH-DX)) on cysteine sulfhydryls of reduced interchain disulfides, thioether bond; positions not given
notes: average drug number per antibody 5.6 (procedure E)
binding result (human GPR20 [1]): binds

B2: antibody-drug conjugate (2) 046Ch-ADC1 (antibody, human IgG1)
heavy: not shown
light: B1 light
modifications: ADC1 exatecan drug linker on the interchain-disulfide cysteine, thioether bond; position not given; ADC1 exatecan drug linker (maleimidocaproyl-GGFG-NH-CH2-O-CH2-C(=O)-(NH-DX)) on cysteine sulfhydryls of reduced interchain disulfides, thioether bond; positions not given
notes: as for B1
binding result (human GPR20 [1]): binds

B3: humanized h046-H4b/L7 (antibody, human IgG1, kappa)
heavy: not shown
light: DTQLTQSPSSLSASVGDRVTITCRASKSVSTYIHWYQQKPGKQPKLLIYSAGNLESGVPSRFSGSGSGTDFTLTISSLQPEDFANYYCQQINELPYTFGQGTKVEIKRTVAAPSVFIFPPSDEQLKSGTASVVCLLNNFYPREAKVQWKVDNALQSGNSQESVTEQDSKDSTYSLSSTLTLSKADYEKHKVYACEVTHQGLSSPVTKSFNRGEC
notes: Humanized IgG1 / kappa
binding result (human GPR20 [1]): binds

B4: antibody-drug conjugate h046-H4b/L7-ADC1 (antibody, human IgG1, kappa)
heavy: not shown
light: B3 light
modifications: ADC1 exatecan drug linker on the interchain-disulfide cysteine, thioether bond; position not given; ADC1 exatecan drug linker (maleimidocaproyl-GGFG-NH-CH2-O-CH2-C(=O)-(NH-DX)) on cysteine sulfhydryls of reduced interchain disulfides, thioether bond; positions not given
notes: also called antibody-drug conjugate (3); antibody-drug conjugate (4)
binding result (human GPR20 [1]): binds

B5: antibody-drug conjugate (7) h046-H4b/L7-ADC2 (antibody, human IgG1, kappa)
heavy: not shown
light: B3 light
modifications: ADC2 exatecan drug linker on the interchain-disulfide cysteine, thioether bond; position not given; ADC2 exatecan drug linker (maleimide-PEG2-GGFG-NH-CH2CH2CH2-C(=O)-(NH-DX)) on cysteine sulfhydryls of reduced interchain disulfides, thioether bond; positions not given
notes: average drug number 6.1 (E) / 7.6 (F)
binding result (human GPR20 [1]): binds

B6: humanized h046-H5b/L2 (antibody, human IgG1, kappa, V domains shown)
VH: QVQLVQSGAEVKKPGASVKVSCKASGYTFTSYYISWIRQAPGQGLKYMGFINPGSGHTNYNEKFKGRVTITADKSSSTANMELSSLRSEDTAVYYCARGAGGFLRIITKFDYWGQGTLVTVSS
VL: DIQMTQSPSSLSASVGDRVTITCRASKSVSTYIHWYQQKPGKQPKLLIYSASNLESGVPSRFSGSGSGTDFTLTISSLQPEDFATYYCQQINELPYTFGQGTKVEIKR
notes: Humanized IgG1 / kappa
binding result (human GPR20 [1]): binds

B7: antibody-drug conjugate (5) h046-H5b/L2-ADC1 (antibody, human IgG1, kappa, V domains shown)
VH: B6 VH
VL: B6 VL
modifications: ADC1 exatecan drug linker on the interchain-disulfide cysteine, thioether bond; position not given; ADC1 exatecan drug linker (maleimidocaproyl-GGFG-NH-CH2-O-CH2-C(=O)-(NH-DX)) on cysteine sulfhydryls of reduced interchain disulfides, thioether bond; positions not given
notes: average drug number 5.4 (E) / 7.9 (F)
binding result (human GPR20 [1]): binds

B8: antibody-drug conjugate (8) h046-H5b/L2-ADC2 (antibody, human IgG1, kappa, V domains shown)
VH: B6 VH
VL: B6 VL
modifications: ADC2 exatecan drug linker on the interchain-disulfide cysteine, thioether bond; position not given; ADC2 exatecan drug linker (maleimide-PEG2-GGFG-NH-CH2CH2CH2-C(=O)-(NH-DX)) on cysteine sulfhydryls of reduced interchain disulfides, thioether bond; positions not given
notes: average drug number 6.0 (E) / 7.7 (F)
binding result (human GPR20 [1]): binds

B9: humanized h046-H4e/L7 (antibody, human IgG1, kappa)
heavy: not shown
light: B3 light
notes: Humanized IgG1 / kappa
binding result (human GPR20 [1]): binds

B10: antibody-drug conjugate h046-H4e/L7-ADC1 (antibody, human IgG1, kappa)
heavy: not shown
light: B3 light
modifications: ADC1 exatecan drug linker on the interchain-disulfide cysteine, thioether bond; position not given; ADC1 exatecan drug linker (maleimidocaproyl-GGFG-NH-CH2-O-CH2-C(=O)-(NH-DX)) on cysteine sulfhydryls of reduced interchain disulfides, thioether bond; positions not given
notes: also called antibody-drug conjugate (13); antibody-drug conjugate (14)
binding result (human GPR20 [1]): binds

B11: rat anti-GPR20 antibody 04-079 (antibody, rat IgG2b, V domains shown)
VH: QVQLQQSGAELAKPGSSVKISCKASGYTFTSYYITWIKQTTGQGLKYIGYINPGSGHTNYNEKFKGKATLTVDKSSSTAFMQLSSLTPDDSAVYYCARGAGGFLRIISKFDYWGQGVMVTVSS
VL: DTVLTQSPALAVSLGQRVTISCRASKSVSTYMHWYQQRSGQQPKLLIYSASNLESGVPSRFSGSGSGTDFTLTIDPVKADDITNYYCQQSNELPYTFGAGTKLELKR
notes: Rat IgG2b, kappa; also called 04-079 antibody
Cell survival rate (%) in internalization activity evaluation [2]: 62%
cell proliferation suppression rate (Rat-ZAP internalization screening) (human GPR20 [3]): ≥ 60%
binding result (mouse GPR20): no binding
binding result [4]: no binding

B12: antibody-drug conjugate (12) h046-H10/L6-ADC1 (antibody, human IgG1, kappa, V domains shown)
VH: B11 VH with I20V, T35S, Y50F, F80N, V93I, S108T
VL: B6 VL with I2T, M4L, N53D, L54R, T85N
modifications: ADC1 exatecan drug linker on the interchain-disulfide cysteine, thioether bond; position not given; ADC1 exatecan drug linker (maleimidocaproyl-GGFG-NH-CH2-O-CH2-C(=O)-(NH-DX)) on cysteine sulfhydryls of reduced interchain disulfides, thioether bond; positions not given
notes: average drug number 5.5 (E) / 8.0 (F)
binding result (human GPR20 [1]): binds

B13: humanized h046-H10/L6 (antibody, human IgG1, kappa, V domains shown)
VH: B11 VH with I20V, T35S, Y50F, F80N, V93I, S108T
VL: B6 VL with I2T, M4L, N53D, L54R, T85N
notes: the claims and summary say 20 to 474
binding result (human GPR20 [1]): binds

B14: rat anti-GPR20 antibody 04-126 (antibody, rat IgG2b, V domains shown)
VH: B11 VH with Q5R, T35I, I37M, T41A, K46Q, I48V, A100T
VL: B11 VL with N52T, K78E, T83A
notes: Rat IgG2b, kappa; also called 04-126 antibody; 04-0126
Cell survival rate (%) in internalization activity evaluation [2]: 54%
cell proliferation suppression rate (Rat-ZAP internalization screening) (human GPR20 [3]): ≥ 60%
binding result (mouse GPR20): no binding
binding result [4]: no binding

B15: rat anti-GPR20 antibody 04-046 (antibody, rat IgG2b)
heavy: QVQLQQSGAELAKPGSSVKISCKASGYTFTSYYISWIKQTTGQGLKYIGFINPGSGHTNYNEKFKGKATLTVDKSSSTAFMQLSSLTPDDSAIYYCARGAGGFLRIITKFDYWGQGVMVTVSSAQTTAPSVYPLAPGCGDTTSSTVTLGCLVKGYFPEPVTVTWNSGALSSDVHTFPAVLQSGLYTLTSSVTSSTWPSQTVTCNVAHPASSTKVDKKVERRNGGIGHKCPTCPTCHKCPVPELLGGPSVFIFPPKPKDILLISQNAKVTCVVVDVSEEEPDVQFSWFVNNVEVHTAQTQPREEQYNSTFRVVSALPIQHQDWMSGKEFKCKVNNKALPSPIEKTISKPKGLVRKPQVYVMGPPTEQLTEQTVSLTCLTSGFLPNDIGVEWTSNGHIEKNYKNTEPVMDSDGSFFMYSKLNVERSRWDSRAPFVCSVVHEGLHNHHVEKSISRPPGK
light: DTVLTQSPALAVSLGQRVTISCRASKSVSTYIHWYQQRSGQQPKLLIYSASNLESGVPSRFSGSGSGTDFTLTIDPVEPDDIANYYCQQINELPYTFGAGTKLELKRADAAPTVSIFPPSTEQLATGGASVVCLMNNFYPRDISVKWKIDGTERRDGVLDSVTDQDSKDSTYSMSSTLSLTKADYESHNLYTCEVVHKTSSSPVVKSFNRNEC
notes: Rat IgG2b, kappa; also called 04-046 antibody
Cell survival rate (%) in internalization activity evaluation [2]: 57%
cell proliferation suppression rate (Rat-ZAP internalization screening) (human GPR20 [3]): ≥ 60%
binding result (mouse GPR20): no binding
binding result [4]: no binding
